From patent publication US20190119362A1

Legend:
[1] = target: aIgE-Fab (Fab fragment of Omalizumab) (Humanized antibody/IgG1κ); assay: column breakthrough, 1 mg/mL aIgE-Fab, after 5 cycles of 50 mM NaOH for 30 minutes
[2] = target: aIgE-Fab (Fab fragment of Omalizumab) (Humanized antibody/IgG1κ); assay: ratio of 55% DBC for aIgE-Fab after against before 5 cycles of 50 mM NaOH
[3] = target: aIgE-Fab (Fab fragment of Omalizumab) (Humanized antibody/IgG1κ); assay: column breakthrough, 1 mg/mL aIgE-Fab, 0.33 mL/min
[4] = target: aTNFa-Fab (Fab fragment of Infliximab) (Chimeric antibody/IgG1κ); assay: column breakthrough, 1 mg/mL aTNFa-Fab, quasi-static binding capacity at 55% breakthrough

| 55% DBC after the alkaline washing [1] [mg/mL] | binding capability maintained after alkaline treatment [2] [%] | 55% DBC before the alkaline washing [3] [mg/mL] | 55% DBC [4] [mg/mL-gel] | Substance |
| --- | --- | --- | --- | --- |
| 21.9 | 92.8 | 23.6 | – | LB5t-Wild.4d (tetramer of B5 domain of PpL 312), immobilized on agarose carrier |
| – | – | – | 4.8 | commercially available Protein L carrier (HiTrap Protein L, GE Healthcare Bioscience) |
